Test [1] has as its target T1, NY-BR-1 expressed from a transfected vector/plasmid in target cells (Homo sapiens (Human), UniProt Q9BXX3 1-1397).
T1 sequence: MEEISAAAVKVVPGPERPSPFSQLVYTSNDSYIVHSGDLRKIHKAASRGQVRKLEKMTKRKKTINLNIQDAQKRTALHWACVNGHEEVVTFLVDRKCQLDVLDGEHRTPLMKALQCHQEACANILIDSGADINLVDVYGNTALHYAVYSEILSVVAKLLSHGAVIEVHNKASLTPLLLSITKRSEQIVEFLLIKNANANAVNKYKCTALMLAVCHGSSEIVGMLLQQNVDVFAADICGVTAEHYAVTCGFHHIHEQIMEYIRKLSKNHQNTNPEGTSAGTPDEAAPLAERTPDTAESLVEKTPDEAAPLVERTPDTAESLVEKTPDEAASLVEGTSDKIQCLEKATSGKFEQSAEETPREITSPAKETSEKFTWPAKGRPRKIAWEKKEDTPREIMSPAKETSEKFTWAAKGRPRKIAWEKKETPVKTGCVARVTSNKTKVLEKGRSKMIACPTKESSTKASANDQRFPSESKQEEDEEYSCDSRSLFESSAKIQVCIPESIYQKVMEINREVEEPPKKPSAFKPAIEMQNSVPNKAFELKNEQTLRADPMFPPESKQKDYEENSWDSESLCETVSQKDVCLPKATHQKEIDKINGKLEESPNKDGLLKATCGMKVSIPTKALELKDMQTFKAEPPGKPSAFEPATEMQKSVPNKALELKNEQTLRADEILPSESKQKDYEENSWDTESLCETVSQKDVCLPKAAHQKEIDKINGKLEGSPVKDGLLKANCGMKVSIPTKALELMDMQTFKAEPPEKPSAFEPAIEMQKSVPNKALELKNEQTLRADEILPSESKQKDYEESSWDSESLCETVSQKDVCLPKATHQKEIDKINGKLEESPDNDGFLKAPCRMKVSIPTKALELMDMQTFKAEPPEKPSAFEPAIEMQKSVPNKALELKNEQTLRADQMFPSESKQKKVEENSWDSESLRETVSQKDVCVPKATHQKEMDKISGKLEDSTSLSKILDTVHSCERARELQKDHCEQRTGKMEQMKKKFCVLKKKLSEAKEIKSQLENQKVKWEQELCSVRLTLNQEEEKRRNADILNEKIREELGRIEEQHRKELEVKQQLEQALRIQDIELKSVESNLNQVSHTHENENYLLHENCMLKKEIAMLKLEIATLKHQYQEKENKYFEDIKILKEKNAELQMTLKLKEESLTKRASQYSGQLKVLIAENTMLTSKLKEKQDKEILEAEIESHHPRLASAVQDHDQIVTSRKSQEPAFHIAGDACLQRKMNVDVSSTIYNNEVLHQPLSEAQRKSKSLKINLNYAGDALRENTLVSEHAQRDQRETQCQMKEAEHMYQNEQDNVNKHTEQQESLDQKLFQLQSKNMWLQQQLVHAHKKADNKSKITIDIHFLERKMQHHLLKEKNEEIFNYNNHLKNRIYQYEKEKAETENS
Put plainly: cell-based or functional assay.

In test [2] the target is NYBR1.1, an isoform of NYBR1, expressed from a plasmid in Cos7 cells, Q9BXX2. Nature of the test: cell-based or functional assay.
NYBR1.1, an isoform of NYBR1, expressed from a plasmid in Cos7 cells, Q9BXX2, sequence (Q9BXX2 whole entry, canonical isoform): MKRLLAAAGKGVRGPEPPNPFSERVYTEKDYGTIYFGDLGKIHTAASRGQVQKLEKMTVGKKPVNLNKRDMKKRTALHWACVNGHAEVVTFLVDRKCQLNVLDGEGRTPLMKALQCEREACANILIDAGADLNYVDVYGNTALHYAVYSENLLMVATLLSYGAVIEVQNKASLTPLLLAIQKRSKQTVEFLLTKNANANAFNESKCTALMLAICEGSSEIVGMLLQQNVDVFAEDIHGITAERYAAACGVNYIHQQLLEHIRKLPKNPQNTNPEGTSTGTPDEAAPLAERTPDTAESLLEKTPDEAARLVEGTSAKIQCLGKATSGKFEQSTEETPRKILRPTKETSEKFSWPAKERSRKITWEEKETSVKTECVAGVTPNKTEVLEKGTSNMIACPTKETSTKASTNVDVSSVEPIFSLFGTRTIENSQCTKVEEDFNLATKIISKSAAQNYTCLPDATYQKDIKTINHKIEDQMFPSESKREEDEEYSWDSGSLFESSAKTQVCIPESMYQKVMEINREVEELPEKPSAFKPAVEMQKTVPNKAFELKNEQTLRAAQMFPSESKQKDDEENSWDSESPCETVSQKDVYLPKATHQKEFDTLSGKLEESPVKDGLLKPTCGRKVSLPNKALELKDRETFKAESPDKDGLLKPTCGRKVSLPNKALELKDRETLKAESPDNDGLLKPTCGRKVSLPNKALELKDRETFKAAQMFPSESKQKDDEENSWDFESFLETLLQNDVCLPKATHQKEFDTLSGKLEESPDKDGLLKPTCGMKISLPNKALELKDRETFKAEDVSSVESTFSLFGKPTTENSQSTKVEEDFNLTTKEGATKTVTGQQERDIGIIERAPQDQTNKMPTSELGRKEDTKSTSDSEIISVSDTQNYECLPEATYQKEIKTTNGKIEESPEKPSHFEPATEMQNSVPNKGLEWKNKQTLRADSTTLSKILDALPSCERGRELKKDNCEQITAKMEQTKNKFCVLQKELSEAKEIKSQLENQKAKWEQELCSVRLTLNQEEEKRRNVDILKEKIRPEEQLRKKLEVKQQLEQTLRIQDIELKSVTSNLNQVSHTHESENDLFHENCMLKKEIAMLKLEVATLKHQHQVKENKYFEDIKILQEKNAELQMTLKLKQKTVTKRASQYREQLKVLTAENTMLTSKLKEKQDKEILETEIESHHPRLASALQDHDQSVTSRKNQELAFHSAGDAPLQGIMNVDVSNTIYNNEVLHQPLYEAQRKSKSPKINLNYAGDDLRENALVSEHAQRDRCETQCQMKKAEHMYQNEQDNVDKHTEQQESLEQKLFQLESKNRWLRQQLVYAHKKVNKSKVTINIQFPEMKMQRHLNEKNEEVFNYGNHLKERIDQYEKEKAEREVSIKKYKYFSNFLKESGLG

B1: third generation anti-NY-BR-1 CAR (NYBR1-28BBZ) (other)
chain: VQLQESGPDLVKPSQSLSLTCTVTGYSITSGYSWHWIRQFPGNKLEWMGYIHYSGDTDYNPSLKSRFSITRDTSKNQFFLQLNSVTTEDTATYYCATPGGFVYWGQGTLVTVSAGGGGSGGGGSGGGGSDVVMTQTPLTLSVTIGQPASISCKSSQSLLDSDGKTYLHWLLQRPGQSPKRLIFLVSKLDSGVPDRFTGSGSGTDFTLKISRVEAEDLGVYYCWQGTHFPQTFGGGTKLEIKAAAFVPVFLPAKPTTTPAPRPPTPAPTIASQPLSLRPEACRPAAGGAVHTRGLDFACDIYIWAPLAGTCGVLLLSLVITLYCNHRNRSKRSRLLHSDYMNMTPRRPGPTRKHYQPYAPPRDFAAYRSRFSVVKRGRKKLLYIFKQPFMRPVQTTQEEDGCSCRFPEEEEGGCELRVKFSRSADAPAYQQGQNQLYNELNLGRREEYDVLDKRRGRDPEMGGKPRRKNPQEGLYNELQKDKMAEAYSEIGMKGERRRGKGHDGLYQGLSTATKDTYDALHMQALPPR
For B1, in test [1], the “IFN-γ secretion (pg/ml) upon co-culture with Cos7 cell line transfected with plasmid NYBR1; Patient 5” value (from here on “IFN-γ secretion … with plasmid NYBR1; Patient 5”) came out at 51 pg/mL, the “IFN-γ secretion (pg/ml) upon co-culture with Cos7 cell line transfected with plasmid NYBR1; Patient 6” value (“IFN-γ secretion … with plasmid NYBR1; Patient 6” below) was determined as 48 pg/mL and the “IFN-γ secretion (pg/ml) upon co-culture with Cos7 cell line transfected with plasmid NYBR1; Patient 7” value (shortened to “IFN-γ secretion … with plasmid NYBR1; Patient 7”) worked out at 71 pg/mL. In test [2], this molecule showed an IFN-γ secretion (pg/ml) upon co-culture with Cos7 cell line transfected with plasmid NYBR 1.1; Patient 5 of 0 pg/mL, an IFN-γ secretion (pg/ml) upon co-culture with Cos7 cell line transfected with plasmid NYBR 1.1; Patient 6 of 14 pg/mL and an IFN-γ secretion (pg/ml) upon co-culture with Cos7 cell line transfected with plasmid NYBR 1.1; Patient 7 of 26 pg/mL.

B2: fourth generation anti-NY-BR-1 CAR (NYBR1 ScFv BBZ) (other)
chain: VQLQESGPDLVKPSQSLSLTCTVTGYSITSGYSWHWIRQFPGNKLEWMGYIHYSGDTDYNPSLKSRFSITRDTSKNQFFLQLNSVTTEDTATYYCATPGGFVYWGQGTLVTVSAGGGGSGGGGSGGGGSDVVMTQTPLTLSVTIGQPASISCKSSQSLLDSDGKTYLHWLLQRPGQSPKRLIFLVSKLDSGVPDRFTGSGSGTDFTLKISRVEAEDLGVYYCWQGTHFPQTFGGGTKLEIKAAAFVPVFLPAKPTTTPAPRPPTPAPTIASQPLSLRPEACRPAAGGAVHTRGLDFACDIYIWAPLAGTCGVLLLSLVITLYCNHRNRFSVVKRGRKKLLYIFKQPFMRPVQTTQEEDGCSCRFPEEEEGGCELRVKFSRSADAPAYQQGQNQLYNELNLGRREEYDVLDKRRGRDPEMGGKPRRKNPQEGLYNELQKDKMAEAYSEIGMKGERRRGKGHDGLYQGLSTATKDTYDALHMQALPPR
For B2, in test [1], the “IFN-γ secretion … with plasmid NYBR1; Patient 5” value stood at 1620 pg/mL, the “IFN-γ secretion … with plasmid NYBR1; Patient 6” value is 929 pg/mL and the “IFN-γ secretion … with plasmid NYBR1; Patient 7” value amounted to 3290 pg/mL. For the same molecule, in test [2], the IFN-γ secretion (pg/ml) upon co-culture with Cos7 cell line transfected with plasmid NYBR 1.1; Patient 5 was 527 pg/mL, the IFN-γ secretion (pg/ml) upon co-culture with Cos7 cell line transfected with plasmid NYBR 1.1; Patient 6 amounted to 411 pg/mL and the IFN-γ secretion (pg/ml) upon co-culture with Cos7 cell line transfected with plasmid NYBR 1.1; Patient 7 is 1260 pg/mL.

B3: second generation anti-NY-BR-1 CAR (NYBR1-28Z) (other)
chain: VQLQESGPDLVKPSQSLSLTCTVTGYSITSGYSWHWIRQFPGNKLEWMGYIHYSGDTDYNPSLKSRFSITRDTSKNQFFLQLNSVTTEDTATYYCATPGGFVYWGQGTLVTVSAGGGGSGGGGSGGGGSDVVMTQTPLTLSVTIGQPASISCKSSQSLLDSDGKTYLHWLLQRPGQSPKRLIFLVSKLDSGVPDRFTGSGSGTDFTLKISRVEAEDLGVYYCWQGTHFPQTFGGGTKLEIKAAAIEVMYPPPYLDNEKSNGTIIHVKGKHLCPSPLFPGPSKPFWVLVVVGGVLACYSLLVTVAFIIFWVRSKRSRLLHSDYMNMTPRRPGPTRKHYQPYAPPRDFAAYRSRVKFSRSADAPAYQQGQNQLYNELNLGRREEYDVLDKRRGRDPEMGGKPRRKNPQEGLYNELQKDKMAEAYSEIGMKGERRRGKGHDGLYQGLSTATKDTYDALHMQALPPR
As for B3, in test [1], the “IFN-γ secretion … with plasmid NYBR1; Patient 5” value is 1110 pg/mL, the “IFN-γ secretion … with plasmid NYBR1; Patient 6” value stood at 555 pg/mL and the “IFN-γ secretion … with plasmid NYBR1; Patient 7” value was determined as 3590 pg/mL. Further, in test [2], the IFN-γ secretion (pg/ml) upon co-culture with Cos7 cell line transfected with plasmid NYBR 1.1; Patient 5 was 153 pg/mL, the IFN-γ secretion (pg/ml) upon co-culture with Cos7 cell line transfected with plasmid NYBR 1.1; Patient 6 worked out at 51 pg/mL and the IFN-γ secretion (pg/ml) upon co-culture with Cos7 cell line transfected with plasmid NYBR 1.1; Patient 7 stood at 518 pg/mL.

(Values after US20160333422A1 (UNITED STATES OF AMERICA AS REPRESENTED BY THE SECRETARY …, published 2016).)
